Data published in patent publication US20210002644, “ANTI-CHYMASE APTAMER AND USE FOR SAME” (RIBOMIC INC., published 2021).

T1: chymase (native, human skin mast cell) (Homo sapiens, UniProt P23946 P23946:22-247)
T1 sequence: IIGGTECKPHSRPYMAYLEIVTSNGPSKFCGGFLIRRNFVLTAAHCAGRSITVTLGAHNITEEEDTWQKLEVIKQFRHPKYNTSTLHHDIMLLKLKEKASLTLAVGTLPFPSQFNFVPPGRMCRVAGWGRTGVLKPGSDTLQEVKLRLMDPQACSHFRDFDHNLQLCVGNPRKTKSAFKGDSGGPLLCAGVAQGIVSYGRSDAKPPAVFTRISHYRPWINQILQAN

B1: SEQ ID NO: 17(11) (mixed)
RNA: GAUGAUCGGACAUAACAUUGUUGGGGUGUCAA
modifications: idT-G(M)A(M)U(F)G(M)A(M)U(F)C(F)G(M)G(M)A(M)C(F)A(M)U(F)AAC(F)A(M)TTG(M)U(F)U(M)G(M)GG(M)G(M)TG(M)TCA(M)A(M)-idT (F=2'-F, M=2'-OMe)
B2: SEQ ID NO: 17(10) (mixed)
RNA: B1 RNA
modifications: idT-G(M)A(M)U(F)G(M)A(M)U(F)C(F)G(M)G(M)A(M)C(F)A(M)U(F)AAC(F)A(M)TTG(M)U(M)U(F)G(M)GG(M)G(M)TG(M)TCA(M)A(M)-idT (F=2'-F, M=2'-OMe)
B3: SEQ ID NO: 17(18) (mixed)
RNA: B1 RNA
modifications: idT-G(M)A(M)U(F)G(M)A(M)U(F)C(F)G(M)G(M)A(M)C(F)A(M)U(F)sAAC(F)A(M)TTG(M)U(F)U(F)G(M)GG(M)G(M)TG(M)TCA(M)A(M)-idT (F=2'-F, M=2'-OMe, s=PS)
B4: SEQ ID NO: 17(15) (mixed)
RNA: B1 RNA
modifications: idT-G(M)A(PHE)U(F)G(M)A(M)U(F)C(F)G(M)G(M)A(M)C(F)A(M)U(F)AAC(F)A(M)TTG(M)U(F)U(F)G(M)GG(M)G(M)TG(M)TCA(M)A(M)-idT (F=2'-F, M=2'-OMe, PHE=8-(propyl)phenyl-rA)
B5: SEQ ID NO: 17(23) (ssRNA)
RNA: B1 RNA
modifications: idT-G(M)A(PHE)U(F)G(M)A(M)U(F)C(F)G(M)G(M)A(M)C(F)A(M)U(F)AAC(F)AU(F)U(F)G(M)U(F)U(F)G(M)GG(M)G(M)U(F)G(M)U(F)C(F)A(M)A(M)-idT (F=2'-F, M=2'-OMe, PHE=8-(propyl)phenyl-rA)
B6: SEQ ID NO: 17(6) (mixed)
RNA: B1 RNA
modifications: idT-G(M)A(M)U(F)G(M)A(M)U(F)C(F)G(M)G(M)A(M)C(F)A(M)U(F)AAC(F)A(M)TTG(M)U(F)U(F)G(M)GG(M)G(M)TG(M)TCA(M)A(M)-idT (F=2'-F, M=2'-OMe)
B7: SEQ ID NO: 33(1) (mixed)
RNA: AUGAUCGGACAUAACUAAUUAGGGGUGUCAA
modifications: idT-A(M)U(M)G(M)A(M)U(F)C(F)G(M)G(M)A(M)C(M)A(M)U(M)AAC(M)U(F)AAU(F)U(M)AG(M)GG(M)G(M)TG(M)U(M)C(M)A(M)A(M)-idT (F=2'-F, M=2'-OMe)
B8: SEQ ID NO: 33(13) (mixed)
RNA: B7 RNA
modifications: idT-A(M)U(M)G(M)A(M)U(F)C(F)G(M)G(M)A(M)C(M)A(M)U(M)AAC(M)T(M)A(M)A(M)U(M)U(M)A(M)G(M)GG(M)G(M)TG(M)U(M)C(M)A(M)A(M)-idT (F=2'-F, M=2'-OMe)
B9: SEQ ID NO: 33(5) (mixed)
RNA: B7 RNA
modifications: idT-A(PHE)U(M)G(M)A(M)U(F)C(F)G(M)G(M)A(M)C(F)A(M)U(M)AAC(M)U(F)A(M)A(M)U(F)U(M)A(M)G(M)GG(M)G(M)TG(M)U(M)C(M)A(M)A(M)-idT (F=2'-F, M=2'-OMe, PHE=8-(propyl)phenyl-rA)
B10: SEQ ID NO: 33(4) (mixed)
RNA: B7 RNA
modifications: idT-A(PHE)U(M)G(M)A(M)U(F)C(F)G(M)G(M)A(M)C(F)A(M)U(M)AAC(M)U(F)A(M)A(M)U(F)U(M)A(M)G(M)GG(M)G(M)TG(M)TC(M)A(M)A(M)-idT (F=2'-F, M=2'-OMe, PHE=8-(propyl)phenyl-rA; printed 1J(F) read as U(F))
B11: SEQ ID NO: 33(7) (mixed)
RNA: B7 RNA
modifications: idT-A(M)U(M)G(M)A(M)U(F)C(F)G(M)G(M)A(M)C(M)A(M)U(M)A(M)AC(M)U(F)A(M)A(M)U(M)U(M)A(M)G(M)GG(M)G(M)TG(M)U(M)C(M)A(M)A(M)-idT (F=2'-F, M=2'-OMe)
B12: SEQ ID NO: 33(14) (mixed)
RNA: B7 RNA
modifications: idT-A(M)U(M)G(M)A(M)U(F)C(F)G(M)G(M)A(M)C(M)A(M)U(M)AAC(M)U(F)A(M)A(M)T(M)U(M)A(M)G(M)GG(M)G(M)TG(M)U(M)C(M)A(M)A(M)-idT (F=2'-F, M=2'-OMe)
B13: SEQ ID NO: 33(8) (mixed)
RNA: B7 RNA
modifications: idT-A(M)U(M)G(M)A(M)U(F)C(F)G(M)G(M)A(M)C(M)A(M)U(M)AA(M)C(M)U(F)A(M)A(M)U(M)U(M)A(M)G(M)GG(M)G(M)TG(M)U(M)C(M)A(M)A(M)-idT (F=2'-F, M=2'-OMe)
B14: SEQ ID NO: 33(17) (mixed)
RNA: B7 RNA
modifications: idT-A(PHE)U(M)G(M)A(M)U(F)C(F)G(M)G(M)A(M)C(M)A(M)U(M)AAC(M)U(F)A(M)A(M)U(M)U(M)A(M)G(M)GG(M)G(M)TG(M)U(M)C(M)A(M)A(M)-idT (F=2'-F, M=2'-OMe, PHE=8-(propyl)phenyl-rA)
B15: SEQ ID NO: 33(12) (mixed)
RNA: B7 RNA
modifications: idT-A(M)U(M)G(M)A(M)U(F)C(F)G(M)G(M)A(M)C(M)A(M)U(M)AAC(M)U(F)A(M)A(M)U(M)TA(M)G(M)GG(M)G(M)TG(M)U(M)C(M)A(M)A(M)-idT (F=2'-F, M=2'-OMe)
B16: SEQ ID NO: 33(15) (mixed)
RNA: B7 RNA
modifications: idT-A(M)U(M)G(M)A(M)U(F)C(F)G(M)G(M)A(M)C(M)A(M)U(M)AAC(M)U(F)A(M)A(M)U(M)T(M)A(M)G(M)GG(M)G(M)TG(M)U(M)C(M)A(M)A(M)-idT (F=2'-F, M=2'-OMe)
B17: SEQ ID NO: 33(10) (mixed)
RNA: B7 RNA
modifications: idT-A(M)U(M)G(M)A(M)U(F)C(F)G(M)G(M)A(M)C(M)A(M)U(M)AAC(M)TA(M)A(M)U(M)U(M)A(M)G(M)GG(M)G(M)TG(M)U(M)C(M)A(M)A(M)-idT (F=2'-F, M=2'-OMe)
B18: SEQ ID NO: 33(6) (mixed)
RNA: B7 RNA
modifications: idT-A(M)U(M)G(M)A(M)U(F)C(F)G(M)G(M)A(M)C(F)A(M)U(M)AAC(M)U(F)A(M)A(M)U(M)U(M)A(M)G(M)GG(M)G(M)TG(M)U(M)C(M)A(M)A(M)-idT (F=2'-F, M=2'-OMe)
B19: SEQ ID NO: 33(3) (mixed)
RNA: B7 RNA
modifications: idT-A(PHE)U(M)G(M)A(M)U(F)C(F)G(M)G(M)A(M)C(M)A(M)U(M)AAC(M)U(F)A(M)A(M)U(F)U(M)A(M)G(M)GG(M)G(M)TG(M)U(M)C(M)A(M)A(M)-idT (F=2'-F, M=2'-OMe, PHE=8-(propyl)phenyl-rA)
B20: SEQ ID NO: 33(16) (mixed)
RNA: B7 RNA
modifications: idT-A(M)U(M)G(M)A(M)U(F)C(F)G(M)G(M)A(M)C(M)A(M)U(M)AAC(M)U(F)A(M)A(M)U(M)U(M)A(M)G(M)GG(M)G(M)T(M)G(M)U(M)C(M)A(M)A(M)-idT (F=2'-F, M=2'-OMe)
B21: SEQ ID NO: 33(11) (mixed)
RNA: B7 RNA
modifications: idT-A(M)U(M)G(M)A(M)U(F)C(F)G(M)G(M)A(M)C(M)A(M)U(M)AAC(M)U(F)A(M)A(M)TU(M)A(M)G(M)GG(M)G(M)TG(M)U(M)C(M)A(M)A(M)-idT (F=2'-F, M=2'-OMe)
B22: SEQ ID NO: 33(2) (mixed)
RNA: B7 RNA
modifications: idT-A(M)U(M)G(M)A(M)U(F)C(F)G(M)G(M)A(M)C(F)A(M)U(M)AAC(M)U(F)AAU(F)U(M)AG(M)GG(M)G(M)TG(M)TC(M)A(M)A(M)-idT (F=2'-F, M=2'-OMe)

Target: T1, chymase (native, human skin mast cell)
Assay: inhibition; angiotensin I substrate
Conditions: tags: Calbiochem Human Skin
Procedure: (§1) The total volume of solution for an enzyme reaction in the assay was set to 50 μL, and the reaction was performed in solution C buffer. At first, native (manufactured by Calbiochem) was diluted with solution C to give 5 μL thereof. Here, the native is chymase purified from human skin mast cell. The nucleic acid was serially diluted with solution C at a concentration of 0.0027-2 μM to give 25 μL thereof. The chymase solution (5 μL) and the nucleic acid solution (25 μL) were mixed, and the mixture was incubated at 37° C. for 5 min. On the other hand, […] angiotensin I (manufactured by PEPTIDE […], INC.) was prepared in solution C to give 20 μL thereof, which was incubated at 37° C. for 5 min. The angiotensin I solution was added to a mixture of chymase and nucleic acid to start an enzyme reaction. The final chymase concentration of the reaction solution was 0.5 nM, and the final substrate concentration was 50 μM. After reaction at 37° C. for 90 min, ice-cooled 30% trichloroacetic acid solution (25 μL) was added to quench the reaction. The whole mixture was centrifuged at 4° C., 14000 rpm for 10 min, and the supernatant (30 μL) was used for the next fluorescence induction reaction.
(§2) The above-mentioned supernatant (30 μL) was added to a 96 well plate (black, manufactured by Costar), a solution (15 μL) of 2% o-phthalaldehyde (manufactured by SIGMA) in methanol and 0.3M NaOH solution (170 μL) were added to each well, and the mixture was incubated at room temperature for 10 min. Then, 3M HCl solution (25 μL) was added to quench the reaction. The plate was set on a microplate reader SpectraMax190 (manufactured by Molecular device) and the fluorescence intensity was measured at an excitation wavelength of 355 nm and a fluorescence wavelength of 460 nm.
All nucleic acids of SEQ ID NO: 17(1)-17(25) were prepared by chemical synthesis. In the evaluation of SEQ ID NO: 17(1)-17(25), a method similar to the evaluation method of inhibitory activity against chymase shown in Example 1 by using angiotensin I as a substrate was used for measurement. In the Table, the IC₅₀ value is a mean of 2 or 3 measurements.

Row | Binder | IC50
1 | B1 | 0.14 nM
2 | B2 | 0.13 nM
3 | B3 | 0.15 nM
4 | B4 | 0.13 nM
5 | B5 | 0.16 nM
6 | B6 | 0.14 nM

Target: T1, chymase (native, human skin mast cell)
Assay: inhibition; angiotensin I substrate
Conditions: tags: Calbiochem Human Skin
Remark: another data set of the same source
Procedure: as §1, §2
All nucleic acids of SEQ ID NO: 33(1)-33(18) were prepared by chemical synthesis. The aptamers shown by these sequences were measured by a method similar to the inhibitory activity evaluation method for chymase inhibitory activity shown in Example 1 by using angiotensin I as a substrate. In the Table, the IC₅₀ value is a mean of 2 or 3 measurements.

Row | Binder | IC50
7 | B7 | 0.074 nM
8 | B8 | 0.069 nM
9 | B9 | 0.076 nM
10 | B10 | 0.072 nM
11 | B11 | 0.071 nM
12 | B12 | 0.075 nM
13 | B13 | 0.061 nM
14 | B14 | 0.038 nM
15 | B15 | 0.048 nM
16 | B16 | 0.072 nM
17 | B17 | 0.071 nM
18 | B18 | 0.053 nM
19 | B19 | 0.071 nM
20 | B20 | 0.063 nM
21 | B21 | 0.051 nM
22 | B22 | 0.078 nM
